Assay [1] deals with T1, chimeric human/cynomolgus monkey CD89-II (human/cynomolgus monkey chimera, UniProt P24071 22-287).
T1 construct: also called ΔIle47-Ile71 human EC1-CD89; II (47-71)
T1 chain: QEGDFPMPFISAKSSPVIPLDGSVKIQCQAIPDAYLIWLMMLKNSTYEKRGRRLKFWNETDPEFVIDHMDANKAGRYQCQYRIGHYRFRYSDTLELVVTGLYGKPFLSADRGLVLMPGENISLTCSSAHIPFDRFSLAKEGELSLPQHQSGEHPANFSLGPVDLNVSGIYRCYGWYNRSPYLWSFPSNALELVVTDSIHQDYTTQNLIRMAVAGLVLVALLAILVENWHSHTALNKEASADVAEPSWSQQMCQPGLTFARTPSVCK
The assay is described as follows: FACS, transiently transfected HEK293F, 10 ug/mL; ++ strong, + intermediate, -/+ weak. On the technique in general: Flow cytometry measures light scatter and fluorescence of single cells or particles in a stream.

The target of assay [2] is T2, chimeric human/cynomolgus monkey CD89-III (human/cynomolgus monkey chimera, UniProt P24071 22-287).
T2 construct: also called ΔGly72-Gly96 human EC1-CD89; III (72-96)
T2 chain: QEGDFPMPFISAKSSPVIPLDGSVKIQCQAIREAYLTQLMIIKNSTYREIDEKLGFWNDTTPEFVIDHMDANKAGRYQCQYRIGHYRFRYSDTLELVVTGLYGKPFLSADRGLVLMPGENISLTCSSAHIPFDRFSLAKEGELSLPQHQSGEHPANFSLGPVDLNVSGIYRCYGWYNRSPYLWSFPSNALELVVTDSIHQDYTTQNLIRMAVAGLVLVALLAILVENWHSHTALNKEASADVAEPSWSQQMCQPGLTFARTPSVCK
The assay is described as follows: FACS, transiently transfected HEK293F; - = no binding.

In assay [3] the target is T3, chimeric human/cynomolgus monkey CD89-hotspots (human/cynomolgus monkey chimera, UniProt P24071 22-287).
T3 construct: also called ΔThr58, Gln59; ΔArg73, Arg74, Lys76
T3 chain: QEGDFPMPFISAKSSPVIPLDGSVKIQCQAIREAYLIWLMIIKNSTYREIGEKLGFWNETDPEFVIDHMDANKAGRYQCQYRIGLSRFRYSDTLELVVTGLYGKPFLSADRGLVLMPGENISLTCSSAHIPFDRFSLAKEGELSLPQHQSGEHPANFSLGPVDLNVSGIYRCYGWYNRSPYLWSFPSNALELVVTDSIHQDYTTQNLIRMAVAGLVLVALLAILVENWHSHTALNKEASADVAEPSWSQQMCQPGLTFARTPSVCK
The assay is described as above.

Assay [4] has as its target T4, membrane-bound full-length human CD89 (human, UniProt P24071 22-287).
T4 construct: on stably or transiently transfected HEK293F cells; also called FcalphaRI; huCD89
The assay is described as follows: FACS, HEK293F-huCD89, unlabeled Ab 10 ug/mL first; competitor A3-PE.
Procedure: Then, 10 μL/tube (ie, 0.1×10⁶ cells) of these cells were incubated with or without 100 μL purified mouse anti-human CD89 antibody at 10 μg/mL (in PBS/BSA/NaN₃) for 30 minutes at 4° C. […] After extensive washing in PBS/BSA/NaN₃, cells were fixed in 2% formaldehyde in PBS/BSA/NaN₃ for 30 minutes at 4° C.

Assay [5] deals with T5, membrane full-length bovine Fcγ2R (bovine).
T5 chain: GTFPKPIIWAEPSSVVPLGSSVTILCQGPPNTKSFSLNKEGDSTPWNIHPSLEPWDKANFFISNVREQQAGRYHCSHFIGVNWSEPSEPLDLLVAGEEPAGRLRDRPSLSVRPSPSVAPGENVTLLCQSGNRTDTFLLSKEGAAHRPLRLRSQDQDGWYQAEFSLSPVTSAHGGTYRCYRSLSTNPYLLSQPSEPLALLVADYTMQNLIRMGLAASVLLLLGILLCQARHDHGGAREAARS
The assay is described as follows: FACS, transiently transfected HEK293F.
Procedure: (§1) After 48 hours and/or 72 hours, the binding of CD89/IgA blocking mouse anti-human CD89 antibodies to aforementioned chimeric human/bovine receptors on transfected cells was analyzed by FACS analysis. To this end, transient transfected HEK293F cells were put at 10×10⁶ cells/mL in ice-chilled phosphate-buffered saline containing 0.1% BSA (Sigma)/0.05% NaN₃ (PBS/BSA/NaN₃) supplemented with 50 μg/mL human IgGs (blocking Fcγ receptors; Sigma) for 10 minutes at 4° C. Then, 10 μL/tube (ie, 0.1×10⁶ cells) of these cells were incubated with or without 100 μL purified mouse anti-human CD89 antibody at 10 μg/mL (in PBS/BSA/NaN₃) for 30 minutes at 4° C. […] After extensive washing in PBS/BSA/NaN₃, cells were subsequently incubated with 1:200 diluted PE-conjugated goat anti-mouse IgG Fey-specific antibodies (Jackson ImmunoResearch) for 30 minutes at 4° C. After extensive washing in PBS/BSA/NaN₃, cells were fixed in 2% formaldehyde in PBS/BSA/NaN₃ for 30 minutes at 4° C.

Assay [6] concerns the target T6, chimeric human EC1-CD89/bovine EC2-Fcγ2R (bovine TM & bovine IC) (human/bovine chimera).
T6 construct: also called human EC1-CD89 (version with bovine transmembrane-intracellular region)
The assay is described as follows: FACS, transiently transfected HEK293F, 10 ug/mL.
Procedure: as §1

Assay [7] has as its target T7, chimeric human EC1-CD89/bovine EC2-Fcγ2R (human TM & human IC) (human/bovine chimera).
T7 construct: also called human EC1-CD89 (version with human transmembrane-intracellular region)
Put plainly: FACS, transiently transfected HEK293F, 10 ug/mL.
Procedure: as §1

Assay [8] deals with T2, chimeric human/cynomolgus monkey …. Put plainly: FACS, transiently transfected HEK293F, 10 ug/mL; ++ strong, + intermediate, -/+ weak.
Assay [9] has as its target T3, chimeric human/cynomolgus monkey …. The assay is described as above.
For assay [10], the target named is T4, membrane-bound full-length human CD89. Put plainly: FACS, HEK293F-huCD89, 4C +NaN3, IgA then Ab 10 ug/mL; pre-bound non-aggr serum IgA.
Procedure: After this (ie, without washing), 50 μL purified mouse anti-human CD89 antibody at 20 μg/mL (in PBS/BSA/NaN₃) was added to these cells, and incubated for another 30 minutes at 4° C. […] After extensive washing in PBS/BSA/NaN₃, 1:200 diluted PE-conjugated streptavidin (Jackson ImmunoResearch) was added, and incubated for 30 minutes at 4° C. After extensive washing in PBS/BSA/NaN₃, cells were fixed in 2% formaldehyde in PBS/BSA/NaN₃ for 30 minutes at 4° C.
Assay [11] deals with T1, chimeric human/cynomolgus monkey CD89-II. The assay is described as follows: FACS, transiently transfected HEK293F; - = no binding.
Assay [12] addresses T4, membrane-bound full-length human CD89. Put plainly: FACS, HEK293F-huCD89, 4C +NaN3, IgA then Ab 10 ug/mL; pre-bound heat-aggr serum IgA.
Procedure: After extensive washing in PBS/BSA/NaN₃, 1:200 diluted PE-conjugated streptavidin (Jackson ImmunoResearch) was added, and incubated for 30 minutes at 4° C. After extensive washing in PBS/BSA/NaN₃, cells were fixed in 2% formaldehyde in PBS/BSA/NaN₃ for 30 minutes at 4° C.

B1: mouse anti-human CD89-specific antibody 8F3 (antibody, mouse IgG1, V domains shown)
VH: EVQLVESGGGLVKPGGSLKLSCAASGFTFSNYGMSWVRQTPDKRLEWVATMHSGGTYTYYPDNVKGRFTISRDNAKNNLYLQMSSLRSEDTAMYYCARETGLYDGLFDFWGQGTTLTVSS
VL: DVQITQSPSYLAASPGETITINCRASKTISKYLAWYQEKPGKTNMLLIYSGSTLQSGVPSRFSGSGSGTDFTLTISSLEPEDLAMYYCQQHDEYPWTFGGGTKLEIK
Turning to B1, the binding result is on record as “binds” in assay [1], “no binding (tested: 10 µg/mL)” in assay [2] and “no binding (tested: 10 µg/mL)” in assay [3]. In addition, the “% blocking of A3-PE binding” value in assay [4] was less than 25%.

B2: mouse anti-human CD89-specific antibody 10E7 (antibody, mouse IgG1, V domains shown)
VH: EVQLVESGGGLVQPGGSLKLSCAASGLTFSSYGMSWVRQTPDKRLELVATINGNGDITYYPDSVKGRFTISRDNAKNTLYLQMSSLKSEDTAMYYCARDYDYDYAMDYWGQGTSVTVSS
VL: DIQMTQSTSSLSASLGDSVTISCRASQDIINYLNWYQQKPDGTVKLLIYYTSRLHSGVPSRFSGSGSGTEYSLTVSNLEKEDIATYFCQQGKTLPYTFGGGTKLEIK
Turning to B2, the binding result in [5] is “no binding (tested: 10 µg/mL)”; in assay [6] it was “binds”; in assay [7], “binds”; in [1] it was “binds”; in assay [3], “no binding (tested: 10 µg/mL)”. Moreover, the “% blocking of A3-PE binding” value in assay [4] was less than 25%.

B3: mouse anti-human CD89-specific antibody 20B4 (antibody, mouse IgG1, V domains shown)
VH: QVQLKESGPGLVAPSQSLSITCTVSGFSLTSYGVHWVRQPPGKGLEWLGIIWAGGSTSYNSALMSRLSISKDNSKSQVFLKMNSLQTDDTAMYYCARDHYDLFAYWGQGTLVTVSA
VL: DILMTQSPSSMSVSLGDTVSITCHASQDISRNIGWLQQKPGKSFKGLIYHGTNLEDGVPSRFSGSGSGADYSLTISSLESEDFADYYCVQYAQFPRTFGGGTKLEIK
Take B3: the binding result in [8] is given as “binds”; in assay [9], “binds”; in assay [11], “no binding (tested: 10 µg/mL)”. The “percent IgA binding” value in [10] was 0 to 25%; in [12], 26 to 50%.

For the origin of these results see patent US20210388084A1 (JJP BIOLOGICS SP Z O O, published 2021).
